Measured values from patent US20060121022A1 (Chugai, published 2006).
Positions count from the first letter of the chain named.

Key:
[1] = target: T1, recombinant PCI (with Flag tag) (UniProt P05154)
T1 sequence: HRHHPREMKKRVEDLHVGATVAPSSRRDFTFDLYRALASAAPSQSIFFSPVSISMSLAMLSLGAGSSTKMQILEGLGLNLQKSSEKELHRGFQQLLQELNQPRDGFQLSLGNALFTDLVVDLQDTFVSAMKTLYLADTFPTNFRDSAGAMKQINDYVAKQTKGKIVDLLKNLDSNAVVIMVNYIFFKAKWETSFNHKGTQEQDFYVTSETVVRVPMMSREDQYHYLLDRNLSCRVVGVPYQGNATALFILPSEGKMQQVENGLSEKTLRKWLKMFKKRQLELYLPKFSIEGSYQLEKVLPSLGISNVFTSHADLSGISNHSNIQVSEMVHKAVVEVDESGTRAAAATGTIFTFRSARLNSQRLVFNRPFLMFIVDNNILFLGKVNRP

[2] = target: activated protein C (aPC; protein C from human plasma, activated, SIGMA P-2200) (human, UniProt P04070 43-461); test: cell-based or functional assay
Sequence of activated protein C (aPC; protein C from human plasma, activated, SIGMA P-2200) (P04070 43-461): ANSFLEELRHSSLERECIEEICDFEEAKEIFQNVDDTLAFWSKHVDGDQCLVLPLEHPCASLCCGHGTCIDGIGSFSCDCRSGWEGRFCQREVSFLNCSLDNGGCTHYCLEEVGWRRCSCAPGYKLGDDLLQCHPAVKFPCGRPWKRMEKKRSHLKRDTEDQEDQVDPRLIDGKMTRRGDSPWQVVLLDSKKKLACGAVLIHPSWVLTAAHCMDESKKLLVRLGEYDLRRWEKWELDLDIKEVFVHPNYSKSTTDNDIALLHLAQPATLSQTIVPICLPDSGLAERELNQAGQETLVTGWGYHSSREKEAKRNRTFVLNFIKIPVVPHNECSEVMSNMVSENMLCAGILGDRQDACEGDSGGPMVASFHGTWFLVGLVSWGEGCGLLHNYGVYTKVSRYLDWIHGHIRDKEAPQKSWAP

Question: How did the absorbance (at 405 nm), substrate S-2366; CONTROL (aPC with PCI, no antibody), AVERAGE (absorbance at 405 nm) [1] turn out when “activated protein C (aPC; protein C from human plasma, activated, SIGMA P-2200)” was run?
Answer: Its absorbance (at 405 nm), substrate S-2366; CONTROL (aPC with PCI, no antibody), AVERAGE (absorbance at 405 nm) is 0.262.

Question: And the absorbance (at 405 nm), substrate S-2366; CONTROL (aPC with PCI, no antibody), first replicate (absorbance at 405 nm) [1]?
Answer: The absorbance (at 405 nm), substrate S-2366; CONTROL (aPC with PCI, no antibody), first replicate (absorbance at 405 nm) was 0.278.

Question: And the absorbance (at 405 nm), substrate S-2366; CONTROL (aPC with PCI, no antibody), second replicate (absorbance at 405 nm) [1]?
Answer: The absorbance (at 405 nm), substrate S-2366; CONTROL (aPC with PCI, no antibody), second replicate (absorbance at 405 nm) was 0.245.

B1: anti-aPC antibody aPC#281 (hybridoma well No. 281) (antibody, IgG1, V domains shown)
VH: QIQLVQSGPELEKPGETVRISCKASGYTFTDYSLHWVKQAPGKGLKWMGWINTETGEPTYADDLKGRFAFSLETSATTAYLQINNLKNEDTATYFCARGITLDYWGQGTSLTVSS
VL: DNVMSQSPSSLAVSVGEKVTMSCKSSQSLLSSSNQKNFLAWYQQKPGQSPKLLISWASTRHSGVPDRFTGSGSGTDFTLTISSVNAEDLAVYYCQQYYRYPLTFGAGTKLELK
Question: With B1 as the molecule, how does the “…ON SUPPRESSION RATE (%), EXPERIMENT 1 (APTT coagulation time, human plasma)” value [2] read?
Answer: The value was 33.8%.

Question: And the “…ON SUPPRESSION RATE (%), EXPERIMENT 2 (APTT coagulation time, human plasma)” value [2]?
Answer: Its value is 21.6%.

B2: anti-aPC antibody aPC#79 (hybridoma well No. 79) (antibody, IgG2b, V domains shown)
VH: QVQLQQSGAELARPGASVKLSCKASGYTFTDSYMNWVKQRTGQGLEWIGEVYPETGNSYYNEKFKGKATLTADRSSKTAYMQLNSLTSEDSAVYFCTRGGTGFDYWGQGTTLTVSS
VL: QIVLAQSPAIMSASLGERVTMTCTASSSVSSSYLHWYQQKPGSSPKAWIYSTSNLASGAPTRFSGSGSGTSYSLTISSMEAEDAATYYCHQYHRSPFTFGSGTKLEIK
Question: With B2 as the molecule, how does the “…ON SUPPRESSION RATE (%), EXPERIMENT 1 (APTT coagulation time, human plasma)” value [2] read?
Answer: Its value is 88%.

Question: What about the “…ON SUPPRESSION RATE (%), EXPERIMENT 2 (APTT coagulation time, human plasma)” value [2] of the same molecule?
Answer: Its value is 68.3%.

B3: anti-aPC antibody aPC#123 (hybridoma well No. 123) (antibody, IgG2b, V domains shown)
VH: QVQLQQSGPELVKPGASVKISCKASGYAFSSSWMNWVKQRPGQGLEWIGRIYPGDGDTNYNGKFRGKATLTADKSSSTAYMQLTSLTSVDSAVYFCARWGITTAAWFAYWGQGTLVTVSA
VL: DIQMTQSPASLSASVGETVTITCRTSENIYSYLAWYQQKQGKSPQLLVNNAKTLAEGVPSRFSGSGSGTQFSLKINSLQPEDFGTYYCQHYYGTPPTFGGGTKLEIK
Question: B3 was tested. Which “…ON SUPPRESSION RATE (%), EXPERIMENT 1 (APTT coagulation time, human plasma)” value [2] did it give?
Answer: The value was 23.4%.

Question: What about the “…ON SUPPRESSION RATE (%), EXPERIMENT 2 (APTT coagulation time, human plasma)” value [2] of the same molecule?
Answer: The value was 20.7%.

B4: anti-aPC antibody aPC#285 (hybridoma well No. 285) (antibody, IgG1, V domains shown)
VH: QVQLQQSGSEVVKPGASVKISCKASGYAFSRSWMNWVKQRPGQGLEWIGRIYPGDGDSIYNGKFKGKATLTADKSSTTAYMHLNSLTSVDSAVYFCARWGSSGSSWFAYWGQGTLVTVSA
VL: B3 VL with V15M, Q37R, N49Y, K74R, T85S, Y87F, T94S, P96Y
Question: How did the “…ON SUPPRESSION RATE (%), EXPERIMENT 1 (APTT coagulation time, human plasma)” value [2] turn out when B4 was run?
Answer: Its value is 24.5%.

Question: And the “…ON SUPPRESSION RATE (%), EXPERIMENT 2 (APTT coagulation time, human plasma)” value [2]?
Answer: Its value is 28.2%.
